Each block holds one binder with its values, some of them ahead of it.
B2: CD163 ectodomain (human CD163, residue 1-1050) (receptor)
chain: not shown
B5: human haptoglobin Hp2 (residue 1-406) (natural protein)
chain: VDSGNDVTDIADDGCPKPPEIAHGYVEHSVRYQCKNYYKLRTEGDGVYTLNDKKQWINKAVGDKLPECEADDGCPKPPEIAHGYVEHSVRYQCKNYYKLRTEGDGVYTLNNEKQWINKAVGDKLPECEAVCGKPKNPANPVQRILGGHLDAKGSFPWQAKMVSHHNLTTGATLINEQWLLTTAKNLFLNHSENATAKDIAPTLTLYVGKKQLVEIEKVVLHPNYSQVDIGLIKLKQKVSVNERVMPICLPSKDYAEVGRVGYVSGWGRNANFKFTDHLKYVMLPVADQDQCIRHYEGSTVPEKKTPKSPVGVQPILNEHTFCAGMSKYQEDTCYGDAGSAFAVHDLEEDTWYATGILSFDKSCAVAEYGVYVKVTSIQDWVQKTIAEN

Tests used:
[1] = molecular target: T1, human haptoglobin Hp1 (residue 1-347) (human, UniProt P00738-2 19-347); assay: SEC
T1 sequence: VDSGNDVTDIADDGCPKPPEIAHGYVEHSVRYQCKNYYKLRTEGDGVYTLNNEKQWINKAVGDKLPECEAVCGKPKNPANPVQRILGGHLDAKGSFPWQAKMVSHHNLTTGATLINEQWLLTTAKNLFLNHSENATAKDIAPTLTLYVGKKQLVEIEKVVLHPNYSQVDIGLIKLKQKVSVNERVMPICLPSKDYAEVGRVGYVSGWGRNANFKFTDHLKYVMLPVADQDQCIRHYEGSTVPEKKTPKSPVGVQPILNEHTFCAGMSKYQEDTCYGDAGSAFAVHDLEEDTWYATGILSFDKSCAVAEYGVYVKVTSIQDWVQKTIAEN

[2] = molecular target: B5; assay: SEC
[3] = molecular target: the molecule itself; assay: AUC
[4] = molecular target: the molecule itself; assay: AUC; remark: listed apart in the source
[5] = molecular target: the molecule itself; assay: SEC
[6] = molecular target: B2; assay: AUC
[7] = molecular target: CD163 ectodomain E359A (human, UniProt Q86VB7 42-1050, E359A); assay: pull-down
[8] = molecular target: CD163 ectodomain D292A/D293A (human, UniProt Q86VB7 42-1050, D292A | D293A); assay: pull-down
[9] = molecular target: B2; assay: SEC
[10] = molecular target: the molecule itself; assay: SEC; remark: listed apart in the source

Sequence of CD163 ectodomain E359A (Q86VB7 42-1050 E359A): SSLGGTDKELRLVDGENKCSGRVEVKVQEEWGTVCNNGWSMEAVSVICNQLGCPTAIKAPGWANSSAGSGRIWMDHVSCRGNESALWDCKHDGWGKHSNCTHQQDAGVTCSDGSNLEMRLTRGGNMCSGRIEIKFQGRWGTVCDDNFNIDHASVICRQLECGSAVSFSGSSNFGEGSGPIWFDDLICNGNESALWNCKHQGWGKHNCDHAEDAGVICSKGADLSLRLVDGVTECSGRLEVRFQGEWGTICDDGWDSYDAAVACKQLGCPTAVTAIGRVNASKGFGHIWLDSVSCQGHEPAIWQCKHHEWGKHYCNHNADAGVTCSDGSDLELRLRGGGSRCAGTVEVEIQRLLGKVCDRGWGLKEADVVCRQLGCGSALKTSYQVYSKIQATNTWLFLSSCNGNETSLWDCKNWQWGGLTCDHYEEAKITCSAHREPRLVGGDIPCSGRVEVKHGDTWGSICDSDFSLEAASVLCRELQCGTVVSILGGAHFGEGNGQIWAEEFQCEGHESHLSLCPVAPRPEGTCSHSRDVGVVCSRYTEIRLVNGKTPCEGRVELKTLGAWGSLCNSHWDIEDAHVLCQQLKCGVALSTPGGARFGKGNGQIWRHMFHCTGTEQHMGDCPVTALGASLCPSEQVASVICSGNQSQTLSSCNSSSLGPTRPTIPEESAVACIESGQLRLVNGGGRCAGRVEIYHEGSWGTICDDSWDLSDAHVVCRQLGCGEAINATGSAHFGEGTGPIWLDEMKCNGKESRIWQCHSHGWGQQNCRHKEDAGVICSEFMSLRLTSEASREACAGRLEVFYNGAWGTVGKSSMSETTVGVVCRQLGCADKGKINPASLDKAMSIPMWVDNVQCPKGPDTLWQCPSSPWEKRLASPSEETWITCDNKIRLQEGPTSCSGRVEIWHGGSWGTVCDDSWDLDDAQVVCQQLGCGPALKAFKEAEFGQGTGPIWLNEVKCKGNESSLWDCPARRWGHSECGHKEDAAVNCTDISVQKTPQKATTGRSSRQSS
Sequence of CD163 ectodomain D292A/D293A (Q86VB7 42-1050 D292A/D293A): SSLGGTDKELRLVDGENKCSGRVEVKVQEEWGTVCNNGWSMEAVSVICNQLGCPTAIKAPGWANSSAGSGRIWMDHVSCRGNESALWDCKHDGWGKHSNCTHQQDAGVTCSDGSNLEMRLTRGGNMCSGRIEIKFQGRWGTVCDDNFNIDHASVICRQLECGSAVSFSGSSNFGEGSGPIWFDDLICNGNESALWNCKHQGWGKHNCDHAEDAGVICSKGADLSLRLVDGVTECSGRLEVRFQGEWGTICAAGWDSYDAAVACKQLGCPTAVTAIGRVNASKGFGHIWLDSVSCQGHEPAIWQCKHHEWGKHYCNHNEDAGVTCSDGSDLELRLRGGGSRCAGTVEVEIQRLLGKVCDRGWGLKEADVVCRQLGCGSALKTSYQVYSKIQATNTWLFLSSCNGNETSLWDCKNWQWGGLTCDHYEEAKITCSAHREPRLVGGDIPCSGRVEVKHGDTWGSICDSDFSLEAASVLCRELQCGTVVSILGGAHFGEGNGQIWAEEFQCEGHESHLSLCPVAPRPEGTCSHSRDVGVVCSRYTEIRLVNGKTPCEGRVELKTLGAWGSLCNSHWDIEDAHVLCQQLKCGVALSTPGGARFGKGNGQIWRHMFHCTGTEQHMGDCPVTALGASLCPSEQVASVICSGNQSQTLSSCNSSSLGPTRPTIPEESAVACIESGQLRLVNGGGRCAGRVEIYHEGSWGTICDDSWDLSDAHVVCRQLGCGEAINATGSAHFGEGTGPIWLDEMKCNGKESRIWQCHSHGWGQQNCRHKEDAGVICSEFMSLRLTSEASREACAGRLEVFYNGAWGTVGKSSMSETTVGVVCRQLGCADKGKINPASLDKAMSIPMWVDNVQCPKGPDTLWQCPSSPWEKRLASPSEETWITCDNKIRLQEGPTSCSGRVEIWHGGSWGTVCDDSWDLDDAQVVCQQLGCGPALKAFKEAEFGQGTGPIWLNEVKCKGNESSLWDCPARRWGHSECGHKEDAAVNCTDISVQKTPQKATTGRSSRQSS

- binding result [1]: binds
- binding result [2]: binds
B1: human hemoglobin (complex)
chain 1: not shown
chain 2: not shown

- binding result [6]: binds
- binding result [7]: binds
- binding result [8]: binds
B3: hemoglobin-haptoglobin 1 complex (Hb-Hp1) (complex)
chain 1: not shown
chain 2: not shown
chain 3: VDSGNDVTDIADDGCPKPPEIAHGYVEHSVRYQCKNYYKLRTEGDGVYTLNNEKQWINKAVGDKLPECEAVCGKPKNPANPVQRILGGHLDAKGSFPWQAKMVSHHNLTTGATLINEQWLLTTAKNLFLNHSENATAKDIAPTLTLYVGKKQLVEIEKVVLHPNYSQVDIGLIKLKQKVSVNERVMPICLPSKDYAEVGRVGYVSGWGRNANFKFTDHLKYVMLPVADQDQCIRHYEGSTVPEKKTPKSPVGVQPILNEHTFCAGMSKYQEDTCYGDAGSAFAVHDLEEDTWYATGILSFDKSCAVAEYGVYVKVTSIQDWVQKTIAEN

- binding result [9]: binds
B4: hemoglobin-haptoglobin 2 complex (Hb-Hp2) (complex)
chain 1: not shown
chain 2: not shown
chain 3: VDSGNDVTDIADDGCPKPPEIAHGYVEHSVRYQCKNYYKLRTEGDGVYTLNDKKQWINKAVGDKLPECEADDGCPKPPEIAHGYVEHSVRYQCKNYYKLRTEGDGVYTLNNEKQWINKAVGDKLPECEAVCGKPKNPANPVQRILGGHLDAKGSFPWQAKMVSHHNLTTGATLINEQWLLTTAKNLFLNHSENATAKDIAPTLTLYVGKKQLVEIEKVVLHPNYSQVDIGLIKLKQKVSVNERVMPICLPSKDYAEVGRVGYVSGWGRNANFKFTDHLKYVMLPVADQDQCIRHYEGSTVPEKKTPKSPVGVQPILNEHTFCAGMSKYQEDTCYGDAGSAFAVHDLEEDTWYATGILSFDKSCAVAEYGVYVKVTSIQDWVQKTIAEN

Further lines, the binder ahead of its results:

Binder: B2
- stoichiometry N [3]: 2
- stoichiometry N [4]: 3
- stoichiometry N [5]: ~3

Binder: B5
- binding result [10]: binds
